Assay results from article PMC10897489 (2024).

Target: reported 23mer NSP3 peptide from alphaviruses
Assay: ITC

B1: FXR1 1–122 (domain or fragment)
chain: not shown
  Kd: 19.4 µM
